Values joined by “and” are separate entries in the source; they are usually repeats but may differ in a detail not shown here. Equal values may be shown once.
Experiments:
mouse Tie2 (mouse) = mouse Tie2 (mouse) (UniProt Q02858); assay: cell-based or functional assay
[1] = target: human angiopoietin-2 (human) (UniProt O15123); assay: HTRF; competition with huTie-2-Fc-APC for biotinylated hAng2
[2] = target: human angiopoietin-1 (human) (UniProt Q15389); assay: HTRF; competition with huTie-2-Fc-APC for biotinylated hAng1
Chain of human angiopoietin-1 (human) (Q15389 20-498 limits assumed): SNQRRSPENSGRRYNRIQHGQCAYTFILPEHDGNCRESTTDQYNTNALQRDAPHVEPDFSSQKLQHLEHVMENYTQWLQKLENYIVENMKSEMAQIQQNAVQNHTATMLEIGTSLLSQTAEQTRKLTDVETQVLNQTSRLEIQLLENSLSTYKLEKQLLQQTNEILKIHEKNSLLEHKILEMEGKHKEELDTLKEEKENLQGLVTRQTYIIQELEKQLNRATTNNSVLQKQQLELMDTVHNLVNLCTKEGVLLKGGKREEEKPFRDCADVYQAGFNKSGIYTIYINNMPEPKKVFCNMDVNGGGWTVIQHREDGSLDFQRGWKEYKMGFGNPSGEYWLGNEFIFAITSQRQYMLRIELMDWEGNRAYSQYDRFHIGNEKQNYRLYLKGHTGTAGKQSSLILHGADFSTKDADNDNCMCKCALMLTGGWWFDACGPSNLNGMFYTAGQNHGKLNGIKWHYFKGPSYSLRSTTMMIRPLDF

Chain of human angiopoietin-2 (human) (O15123 19-496 limits assumed): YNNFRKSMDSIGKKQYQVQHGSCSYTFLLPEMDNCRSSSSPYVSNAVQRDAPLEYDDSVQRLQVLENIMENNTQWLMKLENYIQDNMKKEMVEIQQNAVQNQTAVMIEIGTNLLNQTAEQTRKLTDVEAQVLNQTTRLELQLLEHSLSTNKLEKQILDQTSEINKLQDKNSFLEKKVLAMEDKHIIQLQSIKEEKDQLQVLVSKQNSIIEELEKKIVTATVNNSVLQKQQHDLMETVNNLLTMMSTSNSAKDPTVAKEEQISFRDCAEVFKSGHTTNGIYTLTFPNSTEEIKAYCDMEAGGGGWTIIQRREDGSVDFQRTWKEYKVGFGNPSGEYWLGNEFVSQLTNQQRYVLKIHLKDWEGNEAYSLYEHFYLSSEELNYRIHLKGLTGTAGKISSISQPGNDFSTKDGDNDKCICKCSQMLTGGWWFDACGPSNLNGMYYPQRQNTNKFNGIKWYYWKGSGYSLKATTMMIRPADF
Chain of mouse Tie2 (mouse) (Q02858 23-1122): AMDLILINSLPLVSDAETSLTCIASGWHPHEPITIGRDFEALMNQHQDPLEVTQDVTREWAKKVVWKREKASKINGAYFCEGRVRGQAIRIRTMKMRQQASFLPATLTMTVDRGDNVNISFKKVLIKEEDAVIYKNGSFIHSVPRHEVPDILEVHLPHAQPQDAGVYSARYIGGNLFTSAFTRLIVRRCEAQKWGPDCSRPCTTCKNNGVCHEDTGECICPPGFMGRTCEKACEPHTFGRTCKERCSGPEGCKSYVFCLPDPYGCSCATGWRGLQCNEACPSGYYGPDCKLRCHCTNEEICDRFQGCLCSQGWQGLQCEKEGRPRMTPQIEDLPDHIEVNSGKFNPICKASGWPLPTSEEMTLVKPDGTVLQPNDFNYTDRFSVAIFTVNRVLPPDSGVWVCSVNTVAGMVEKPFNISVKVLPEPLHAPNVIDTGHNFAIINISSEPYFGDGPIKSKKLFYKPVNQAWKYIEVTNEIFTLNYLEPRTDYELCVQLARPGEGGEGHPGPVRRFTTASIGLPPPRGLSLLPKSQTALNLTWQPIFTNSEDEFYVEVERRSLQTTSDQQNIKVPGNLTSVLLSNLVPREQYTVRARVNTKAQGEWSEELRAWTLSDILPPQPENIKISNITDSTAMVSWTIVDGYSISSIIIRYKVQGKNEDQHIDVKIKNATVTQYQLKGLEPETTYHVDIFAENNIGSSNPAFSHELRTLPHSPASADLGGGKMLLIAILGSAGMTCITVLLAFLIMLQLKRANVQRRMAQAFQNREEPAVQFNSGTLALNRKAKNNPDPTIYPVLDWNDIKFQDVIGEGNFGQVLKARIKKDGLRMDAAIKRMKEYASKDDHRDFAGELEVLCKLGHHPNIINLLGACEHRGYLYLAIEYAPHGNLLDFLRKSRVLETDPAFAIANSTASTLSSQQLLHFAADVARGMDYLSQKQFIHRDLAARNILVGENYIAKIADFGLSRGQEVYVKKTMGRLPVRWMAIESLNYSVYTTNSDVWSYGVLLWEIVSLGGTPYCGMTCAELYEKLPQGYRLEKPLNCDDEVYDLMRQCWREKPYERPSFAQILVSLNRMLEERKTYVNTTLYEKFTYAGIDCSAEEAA

Substance | Tie2 phosphorylation in mouse lung endothelium (immunoprecipitation-Western blot) (mouse Tie2 (mouse)) [fold] | IC90/IC50 [1] | IC90/IC50 [2]
recombinant Ang1 (R&D Systems Inc.) (ligand) | 5 | – | –
AMG 386 (Fc fusion) | – | 4.1 and 4.4 | 41 and 71

Reference: patent US20170081398A1
